{"source": "paper PMC2810291", "about": "“Identification and characterization of endonuclein binding proteins: evidence of modulatory effects on signal transduction and chaperone activity” (BMC Biochemistry, 2009)", "biological_target": "T1, recombinant endonuclein (human, UniProt Q13610 2-501)", "T1 construct": "human endonuclein, coding region Asn2-Ser501 of the 2309.2 cDNA, in the vector pT7-PL; also called IEF SSP 9502; PWP1 (yeast homologue's name)", "assay": "SPR; BIAcore 2000; endonuclein amine-coupled to a CM5 chip (3302 RU); analytes at 1 μM or 5 μM in 10 mM Hepes, 150 mM NaCl, 5 mM CaCl2, 1 mM EGTA, pH 7.4, 0.005% P20; control flow channel subtracted", "conditions": "both partners purified"}
{"binder": "recombinant TIP-1 as fusion protein with glutathion S-transferase (natural protein, UniProt O14907 1-124, looked up, TIP-1, coding region of the cDNA amplified with primers from the start codon (ATG-TCC-TAC-ATC-CCG-GGC-CA) to the stop codon, in pGEX-4T3; pGEX-4T3 is known to place GST at the N-terminus; also called GST-TIP-1; source: E. coli, purified (pGEX, according to the manufacturer)) MSYIPGQPVTAVVQRVEIHKLRQGENLILGFSIGGGIDQDPSQNPFSEDKTDKGIYVTRVSEGGPAEIAGLQIGDKIMQVNGWDMTMVTHDQARKRLTKRSEEVVRLLVTRQSLQKAVQQSMLS", "values": [{"measurement": "binding result", "value": "binds"}]}
